Assay results published in paper PMC11848572, “Expanding the Functions of KHSRP Protein: Insights into DNA G‐Quadruplex Binding”.

Target: T1, KHSRP130-503 (four KH domains) (Homo sapiens, UniProt Q92945 130-503)
T1 sequence: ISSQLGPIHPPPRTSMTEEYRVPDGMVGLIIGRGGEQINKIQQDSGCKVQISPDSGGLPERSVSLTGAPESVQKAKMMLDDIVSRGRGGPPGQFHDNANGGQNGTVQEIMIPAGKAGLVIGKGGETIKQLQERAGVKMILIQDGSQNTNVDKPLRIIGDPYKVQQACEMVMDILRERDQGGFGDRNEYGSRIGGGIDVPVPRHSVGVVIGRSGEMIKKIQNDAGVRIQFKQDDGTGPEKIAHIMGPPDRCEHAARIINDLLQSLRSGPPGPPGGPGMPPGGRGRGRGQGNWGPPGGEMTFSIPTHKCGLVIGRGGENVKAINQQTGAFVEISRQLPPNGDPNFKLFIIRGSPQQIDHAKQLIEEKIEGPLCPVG
Test: SPR; 25 C, single-cycle kinetics; SPR at 25 C, 1-20 uM G4 over immobilized protein (buffer not in the material); NMR at 25 C (298 K), protein in 5 mM KH2PO4/K2HPO4 pH 7.0, 20 mM KCl
Conditions: protein: recombinant, tags: N-terminal His-tag (pET-28a), TEV-cleaved

TGAGGGTGGGTAGGGTGGGTAA (structured_DNA) [c-Myc]
Kd (parallel G4, intramolecular): 130 ± 25 nM

GGGCGCGGGAGGAATTGGGCGGG (structured_DNA) [Bcl-2]
Kd (hybrid G4, intramolecular): 2000 ± 980 nM

TTGGGTTAGGGTTAGGGTTAGGGA (structured_DNA) [mTel24]
Kd (hybrid G4, intramolecular): 1470 ± 480 nM

CGGGCGGGCGCTAGGGAGGGT (structured_DNA) [c-Kit2]
Kd (parallel G4, intramolecular): 56 ± 8 nM

AGGGAGGGCGCTGGGAGGAGGG (structured_DNA) [c-Kit1]
Kd (parallel G4, intramolecular): 190 ± 90 nM
